Measured values: article PMC2826812 (Biochemistry, 2010)
One block for each molecule: values may come before it.

What was measured:
[1] = molecular target: rabbit skeletal muscle F-actin (rabbit) (UniProt P68135)
[2] = molecular target: acto-Myo1c^1IQ (pyr.actin-Myo1c^1IQ) (Rattus norvegicus, UniProt Q63355); type: binding
[3] = molecular target: rabbit skeletal muscle F-actin (rabbit) (UniProt P68135); remark: listed apart in the source

in vitro motility: speed of actin filaments over surface-held myosin [1]: 29 nm/s
Molecule: Myo1c^SAH-G (from UniProt Q63355 1-762; D3ZJP6 805-843) (domain or fragment)

Kd [2]: 1740 nM
Molecule: Nc1ncnc2c1ncn2[C@@H]1O[C@H](COP(=O)(O)OP(=O)(O)O)[C@@H](O)[C@H]1O [ADP]

Km for actin of the steady-state actin-activated Mg2+-ATPase, pCa 4.6 [3]: 0.28 μM
Molecule: Myo1c^1IQ-G (from UniProt Q63355 1-725) (domain or fragment)
